In the supplement of paper PMC9170038:

System: MS2 coat protein
Test: apparent KD of MS2 coat protein; designed switch direction (-1 OFF switch, 1 ON switch): -1; higher = weaker reporter binding
Summary of the method: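 Each step of the titration lasted 0.8–1.5 h at the lowest concentration and 10–20 min at the highest. The protein, SNAP-549-labelled MS2 coat protein, went from 0.7 or 1.5 nM doubling to 3 µM over RNA switches transcribed on Illumina chips by stalled E. coli RNA polymerase. Normalised cluster fluorescence was curve-fitted, and the per-design median over clusters is given as apparent KD.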

[1] = input ligand: microRNA oligo, concentration not stated
[2] = Eterna round: R95, input ligand: microRNA oligo, concentration not stated
[3] = Eterna round: R95, input ligand: FMN 200 uM
[4] = Eterna round: R95, input ligand: none

Sequence | apparent KD of MS2 coat protein (input ligand: FMN 200 uM) [nM] | apparent KD of MS2 coat protein [1] [nM] | apparent KD of MS2 coat protein (input ligand: none) [nM] | apparent KD of MS2 coat protein [2] [nM] | apparent KD of MS2 coat protein [3] [nM] | apparent KD of MS2 coat protein [4] [nM]
UUAAAUCAUGUAGGAUAUGCGUGGCGAAGCUAUGCAGAAGGACAUGAGGAUCACCCAUGUCUUUCCGUCUGCGUACAGAUGGAG [JL Eng1 1.08 mod 4] (Eterna round: R96, puzzle: Exclusion NG 1) | 191 | 17.4 | 24.7 | – | – | –
CAAACAAGCGAAAGAUCCCACAUGAGGAUCACCCAUGUGCUCGUCUUAUAAGGUACUGUGACGAAAGUCACGGUACC [Sensor 3, v1 - 91 v21] (Eterna round: R97, puzzle: Sensor, turn-off variant 1) | 38.4 | – | 45.3 | – | – | –
AACCUGAGGCAAAGCUUUAGGUGUACAUGAGGAUCACCCAUGUAGGAUAUGGUAGGCAAAGCUUACCAGAAGGACAUUAUGAUG [Mat - Exclusion NG 3 - Mod of JL - D51] (Eterna round: R96, puzzle: Exclusion NG 3) | 104 | 49.5 | 62.9 | – | – | –
UAGCAUUGCCAAAGGUAGUGCAUUACAUGAGGAUCACCCAUGUAGGAUAUGGUAGGCAAAGCUUACCAGAAGGACAUGAUAAUU [Mat - Exclusion NG 3 - Mod of JL - D16] (Eterna round: R96, puzzle: Exclusion NG 3) | 104 | 36.5 | 47.8 | – | – | –
UAUACUAGAUAGGAUAUACUAUAUAUAUUAUUCGUAGAAGGAUCUACAUGAGGAUCACCCAUGUUAACAGCAGU [JR_E6_Sub006] (puzzle: Exclusion 6) | – | – | – | 37.2 | – | –
GAAGAAGAGAGAAUAGAAAACAUGAGGAUCACCCAUGUUAAGAGAUGAGGGUGUAAUAGGAUUUUUGCUCGUCUUAU (puzzle: Sensor v3, turn-off variant 1) | – | – | – | 54 | 38.3 | 40.5
CUGGACUGAGGAUAUUGUGCUGCUGACAUGAGGAUCACCCAUGUAUGUUAACUCGGCCGUCGAGAAGGCAGACAGG [BotMod 18 - Jieux - Exclusion 5] (Eterna round: R97, puzzle: Exclusion 5) | 16.5 | – | 19.1 | – | – | –
AAGUCGACGGUGAGGAUAUUAGUUGAACGACAGAUUAAGAAGGUACAUGAGGAUCACCCAUGUGGGUAGCGUUG [Brourd's EX4 #78] (Eterna round: R97, puzzle: Brourd's mod of Exclusion 4) | 73.2 | – | 80.9 | – | – | –
GAGGAGGUAGGAUAUACGAUAAUAUAGGGUAGAUAUAUAACACAUGAGGAUCACCCAUGUAGAAGGACCAGGAG [Mat - Exclusion 2 - Mod of my Tesla design - D64] (puzzle: Exclusion 2) | – | – | – | 36.7 | – | –
GGUGCGUAUGUUAGGAUAUGCUGGUCCUUGGAUCGGCAGAAGGUACAUGAGGAUCACCCAUGUGGUGUCGUUCC [salish99_Bmod_ex4_103] (puzzle: Brourd's mod of Exclusion 4) | – | – | – | 50.8 | – | –
UACUACGCAGGAUAUACAUGAGGAUCACCCAUGUGUCUGCGAUAGGCACGUGAUAUCCGUAGAAGGGUGUAGAU [Exclusion 3 - Oddities v.1] (puzzle: Exclusion 3) | – | – | – | 30.7 | – | –
AAUUAGCAAGCGAGAUCCCACAUGAGGAUCACCCAUGUGCUCGUCUUAUAUAAGGUACUGUACAAAAGUACGGUACC [Mat - Sensor, turn-off var - Eli Mod - D32] (Eterna round: R97, puzzle: Sensor, turn-off variant 1) | 14.5 | – | 14.1 | – | – | –
GUUAACGUAGGAUAUUAGUACAUGAACAUGAGGAUCACCCAUGUGAGGUAGGUCUUAGAAUAAGAAGGGCGAAGAA [EX5 #28] (Eterna round: R97, puzzle: Exclusion 5) | 124 | – | 124 | – | – | –
AAUUUAUGAGGAUAUACAGUGUAAAACAUGAGGAUCACCCAUGUUCUUCAAUUAGUAUAUGUAGAAGGCAUAUGUA [JR_Ex5_Sub096] (Eterna round: R97, puzzle: Exclusion 5) | 15 | – | 13.7 | – | – | –
ACAAGCUUUUUGUUCGUCUUAUAAUAAUAAAUAAAUAUAACAUGAGGAUCACCCAUGUUGAGAAGACAACCUCAUGU [Sesor Array 24 - Jieux - Sensor v3, turn-off variant 2] (puzzle: Sensor v3, turn-off variant 2) | – | – | – | 108 | 242 | 420
UAGACCGAUGUUAGGAUAUCUGGUCGAGAAAGAAAAGAGAAGGAACAUGAGGAUCACCCAUGUACCCGGGUAAC [Laisbebi] (puzzle: Brourd's mod of Exclusion 4) | – | – | – | 16.7 | – | –
GAAAAGGUAGGAUAUACGAAAAAAAAGGGUAGAAAAAAAACACAUGAGGAUCACCCAUGUAGAAGGACCUAAAG [salish99_ex2_r3_090] (puzzle: Exclusion 2) | – | – | – | 25.7 | 56.1 | 24.6

Sequence | apparent KD of MS2 coat protein (input ligand: FMN 200 uM) [nM] | apparent KD of MS2 coat protein [1] [nM] | apparent KD of MS2 coat protein (input ligand: none) [nM] | apparent KD of MS2 coat protein [2] [nM] | apparent KD of MS2 coat protein [3] [nM] | apparent KD of MS2 coat protein [4] [nM]
AUGUAACAUGAGGAUCACCCAUGUGAGGAUAUGCGAAUGAAUGAAUGAAUGAAUGUUAGCAGAAGGCACAAGUA [Default title] (Eterna round: R97, puzzle: Exclusion 1) | 59.6 | – | 44.3 | – | – | –
UUCACAUGGACAUGAGAUCACAUGAGGAUCACCCAUGUGAAUAACAAGCUUUUUGUUCGUCUUAUGUCCAAUAAUAA [Stov1/14-D1] (Eterna round: R97, puzzle: Sensor, turn-off variant 1) | 14.1 | – | 13.1 | – | – | –
CUGGUCCGAGGAUAUAUUAAGUGAAACAUGAGGAUCACCCAUGUAAUUUAAUGGAUGUAAAUAGAAGGCGGACUAG [Mat - Exclusion 5 - JL mod - D39] (puzzle: Exclusion 5) | – | – | – | 35.3 | 38.9 | 36.4
GCAUGCUAUGUCAGGAUAUACCUGUGGAUACAUAGGUAGAAGGGACAUGAGGAUCACCCAUGUCCUAAUCAUGC [Fiskers BMX 4 - 24] (puzzle: Brourd's mod of Exclusion 4) | – | – | – | 12.1 | – | –
AUAAUUAAUCGAGGAUAUCAGCACGAUUAGUGCUGAGAAGGCGACAUGAGGAUCACCCAUGUGAUCAAUUAAUAUUAAUAUUAU [ENG1/11-C1] (Eterna round: R96, puzzle: Exclusion NG 1) | 1630 | 626 | 808 | – | – | –
UAUUCACAAGCGAGAUCCCACAUGAGGAUCACCCAUGUGCUCGUCUUAUAAGGUACUGUGACGAUAGUCACGGUACC [Mat - Sensor, turn-off var - Eli Mod - D86] (Eterna round: R97, puzzle: Sensor, turn-off variant 1) | 17.4 | – | 15 | – | – | –
AAGAAGAUAGGAUAUACGAGGAGAGGAGAGAAGAGGUGAGGACAUGAGGAUCACCCAUGUAGAAGGAUCAGGAA [JR_Exclu2_Sub063] (puzzle: Exclusion 2) | – | – | – | 266 | 88.7 | 176
AUUCUUCAUAUCACAUGAGGAUCACCCAUGUUAUUCAUCGCGUAGGAUAUCGAGAAUUUUAAAUACGAGAAGGACGAAUUGAUA [JR_ExcNG3_Sub071] (Eterna round: R96, puzzle: Exclusion NG 3) | 35.1 | 31.8 | 35.3 | – | – | –
UCUUAUUGAGGAUAUACAGAUUAUUACAUGAGGAUCACCCAUGUUCUUCAAUGUAUAUAUGUAGAAGGCAGAGGAU [Mat - Exclusion 5 - JL Mod - D12] (Eterna round: R97, puzzle: Exclusion 5) | 217 | – | 68.6 | – | – | –
CUUUUGUGAGGAUAUCAGUAGUAAAUAAAUUAAAUUACUACUGAGAAGGCACAUGAGGAUCACCCAUGUUCCUC [salish99_ex3_r3_081] (puzzle: Exclusion 4) | – | – | – | 39.3 | – | –
UCUCGCGGGCAAGGAUAUCCUACGUUGUUCUGGCCCGUGCAUGUUACAUGAGGAUCACCCAUGUGGGAGAAGGUGCGCCAGGGC [Design 37] (Eterna round: R96, puzzle: Exclusion NG 2) | 51.3 | 36.7 | 59.8 | – | – | –
UCUCGAAGGCAAGGAUAUCCUACAUUGUUCUGGCCCGGGCAUGCUACAUGAGGAUCACCCAUGUGGGAGAAGGUGCGCCACGGC [Design 29] (Eterna round: R96, puzzle: Exclusion NG 2) | 31.6 | 32.9 | 43.1 | – | – | –
AAAACUGCCCAUGACCGCAAGCUUUUUGCUUGUCUUACCACAUGAGGAUCACCCAUGUGUCAUGGGCUCCUUAUAAA [Tisoanor] (puzzle: Sensor v3, turn-off variant 2) | – | – | – | 10.8 | 12.7 | 11.3
AACUCACAUGAGGAUCACCCAUGUGAGGAUAUGAUACUAUGUACUUCGGUACAUAGUAUCAGAAGGCAUGUGGA [Ex1-3: 90] (puzzle: Exclusion 1) | – | – | – | 12.9 | – | –
AGUACUAUGCGAGCUGACUUGCGUAGUGCAGCAGGUGUUACAUGAGGAUCACCCAUGUCCUCAUUUGCUCGUCUUAU [Mat - Sensor v3 - Turn-off var 2 - D6] (puzzle: Sensor v3, turn-off variant 2) | – | – | – | 193 | 271 | 247
CCGGAACAUGAGGAUCACCCAUGUCAGGAUAUGAAUAAAUCGUCGAUAGACGAUAAUCUCAGAAGGGACACCGG [Mat - Exclusion 1 - Eli Mod - D27] (Eterna round: R97, puzzle: Exclusion 1) | 24.5 | – | 24.2 | – | – | –
GGCCUGUGAGGAUAUUAGUAGUAGAUAAAAUAAACUAUUACUGAGAAGGCACAUGAGGAUCACCCAUGUUGGCC [Eli x4 4.05] (Eterna round: R97, puzzle: Exclusion 4) | 20.3 | – | 16.4 | – | – | –
